# Experimental data: PMC10127277
# Biological target: human RNF128 (GRAIL) extracellular domain (human) (UniProt Q8TEB7)
# Test: SPR; Biacore T100; biotinylated ECD (ligand) captured on a streptavidin (SA) series S chip, ~100-200 RU; non-biotinylated VHH as analyte in HBS-P+ buffer, twofold dilutions from 500 nM (RNF128 E2, RNF130 D1) or 1000 nM (RNF43 C8); injection 60 s at 30 ul/min, dissociation 240 s; regeneration 1 x 10 sec glycine pH 2.5; 1:1 Langmuir model or equilibrium
# Chain of human RNF128 (GRAIL) extracellular domain (human) (Q8TEB7 39-428): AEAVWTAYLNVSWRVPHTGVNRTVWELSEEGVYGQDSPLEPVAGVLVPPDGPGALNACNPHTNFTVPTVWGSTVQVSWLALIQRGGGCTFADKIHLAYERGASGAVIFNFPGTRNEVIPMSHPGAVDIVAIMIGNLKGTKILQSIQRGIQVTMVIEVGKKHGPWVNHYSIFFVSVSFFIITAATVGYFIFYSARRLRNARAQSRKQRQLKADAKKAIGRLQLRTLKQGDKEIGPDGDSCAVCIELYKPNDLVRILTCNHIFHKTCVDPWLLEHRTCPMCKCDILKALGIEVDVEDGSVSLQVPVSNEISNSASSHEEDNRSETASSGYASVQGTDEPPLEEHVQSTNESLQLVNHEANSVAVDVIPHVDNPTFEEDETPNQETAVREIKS
binder,measurement,value
RNF128-E2 nanobody (VHH) VHH: QVQLQESGGGLVQAGGSLRLSCAASGSISGGKGMGWYRQAPGKEREFVAAIGSGAITYYADSVKGRFTISRDNAKNTVYLQMNSLKPEDTAVYYCAVYTTALDEYPYWGQGTQVTVSS,Kd,10 nM
